Experimental data as given in US20260193315A1 (FBD BIOLOGICS, published 2026).
Substitutions are numbered along the chain they refer to.

Legend:
[1] = target: 4-1BB on transfected NF-κB Jurkat cells (UniProt Q07011 24-255, limits assumed); experiment: cell-based or functional assay
[2] = target: T1, 4-1BB (coated on ELISA plate) (UniProt Q07011 24-186, limits assumed); experiment: ELISA, binding OD450 / expression OD450
Description: (§1) After centrifugation, culture supernatant was collected for determination of expression and binding activity of the 4-1BBL variants. To determine expression of the 4-1BBL variants, a 96-well plate (flat bottom) was coated with 2 μg/ml anti-His tag antibody overnight. The pre-coated plate was then blocked with 5% milk in PBS at room temperature (RT) for 1 hour. After blocking, 30 μl of bacterial supernatant was added to each well of the plate, and the plate was incubated for 1 hour at RT. After the incubation, anti-c-myc-HRP was added, and the expression level of 4-1BBL variants can be determined by measuring OD450 in a plate reader. To determine binding activity of the 4-1BBL variants, a 96-well plate (flat bottom) was coated with 0.5 μg/ml of 4-1BB overnight. The pre-coated plate was then blocked with 5% milk in PBS at RT for 1 hour. After blocking, 30μ of bacterial supernatant was added to each well of the plate, and the plate was incubated for 1 hour at RT. After the incubation, anti-c-myc-HRP was added, and the 4-1BB-binding activity of 4-1BBL variants can be determined by measuring OD450 in a plate reader.
(§2) The 4-1BB-binding activity was measured using the same methods described above. With respect to 4-1BB-mediated NF-κB reporter activity, a 96-well plate (flat bottom) was coated with 5 μg/ml anti-c-myc antibody at 4° C. overnight. The induced 4-1BBL variant supernatants were added to the pre-coated plate, and the plate was incubated at 37° C. for 2 hours. The above steps were repeated for six times. Afterwards, 1×10⁵/well of transfected NF-κB Jurkat cells expressing 4-1BB was added to the plate, which was then incubated for 5 hours at 37° C. After the incubation, the luminance signal was detected to determine the 4-1BB reporter activity.

[3] = target: T1, 4-1BB (coated on ELISA plate); experiment: ELISA on coated 4-1BB, supernatant
Description: as §1, §2

[4] = target: T1, 4-1BB (coated on ELISA plate); experiment: ELISA on coated 4-1BB, supernatant, OD450
Description: as §1

[5] = target: T1, 4-1BB (coated on ELISA plate); experiment: ELISA on coated 4-1BB, supernatant after 45 °C 30 min, OD450
Description: as §1

[6] = target: T1, 4-1BB (coated on ELISA plate); experiment: ELISA, binding/expression ratio relative to WT
Description: as §1, §2

[7] = target: T1, 4-1BB (coated on ELISA plate); experiment: ELISA, binding OD450 / expression OD450, after 45 °C 30 min
Description: as §1

[8] = target: T1, 4-1BB (coated on ELISA plate); experiment: ELISA, binding OD450 / expression OD450; remark: listed apart in the source
Description: as §1

Chain of 4-1BB on transfected NF-κB Jurkat cells (Q07011 24-255 limits assumed): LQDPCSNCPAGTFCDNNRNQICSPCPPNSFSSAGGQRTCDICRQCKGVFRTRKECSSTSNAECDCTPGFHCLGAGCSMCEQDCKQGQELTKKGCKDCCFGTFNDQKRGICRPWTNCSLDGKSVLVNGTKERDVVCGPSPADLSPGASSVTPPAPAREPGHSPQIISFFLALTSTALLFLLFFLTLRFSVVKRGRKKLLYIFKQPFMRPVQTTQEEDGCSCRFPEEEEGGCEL

B1: 1D2 (ligand)
4-1BBL variant: ACPWAVSGARASPGSAASPRLREGPELSPDDPAGLLDLRQGMFAQLVAQNVLLIDGPLSWYEDPGLAGVSLTGGLSYKEDTKELVVAKAGVYYVFFQLELRRVVAGTGSGSVSLALHLQPLRSAAGAAALALTVDLPPASSEARNSAFGFQGRLLHLSAGQRLGVHLHTEARARHALQLTQGATVLGLFRVTPEIPAGLPSPRSE
notes: also called 4-1BBL variant 1D2 (phagemid clone, bacterial supernatant)
In the case of B1, the “Reporter (RLU)” value [1] is reported as 4390 RLU, the “Reporter (vs wt)” value [1] is reported as 0.75 and the Reporter/Expression ratio [1] is reported as 2150. For the same binder, the Binding/Expression ratio [2] was 0.66, the “Binding (OD450)” value [3] was 1.35 OD450 and the “Binding (25 °C)” value [4] was 1.16. The “Binding (45 °C)” value [5] was 0.803, the “Binding (vs wt)” value [6] was 0.38 and the “Binding / Expression ratio (45degrees)” value [7] was 0.553. The “Binding / Expression ratio (25 degrees)” value [8] was 0.525.

B2: 8B10 (ligand)
4-1BBL variant: B1 4-1BBL variant with E62T, T107M, A176S, L177W
notes: also called 4-1BBL variant 8B10 (phagemid clone, bacterial supernatant)
For B2, the “Reporter (RLU)” value [1] was 8820 RLU, the “Reporter (vs wt)” value [1] was 4.66 and the Reporter/Expression ratio [1] was 13300. For the same binder, the Binding/Expression ratio [2] was 2.65, the “Binding (OD450)” value [3] was 1.75 OD450 and the “Binding (25 °C)” value [4] was 1.5. The “Binding (45 °C)” value [5] was 0.182, the “Binding (vs wt)” value [6] was 1.52 and the “Binding / Expression ratio (45degrees)” value [7] was 0.636. For the same binder, the “Binding / Expression ratio (25 degrees)” value [8] was 1.79.

B3: 4E10 (ligand)
4-1BBL variant: B1 4-1BBL variant with E62P, G106R, T107E, L177M
notes: also called 4-1BBL variant 4E10 (phagemid clone, bacterial supernatant)
For B3, the “Reporter (RLU)” value [1] was 7360 RLU, the “Reporter (vs wt)” value [1] was 2.74 and the Reporter/Expression ratio [1] was 7830. For the same binder, the Binding/Expression ratio [2] was 1.04, the “Binding (OD450)” value [3] was 0.975 OD450 and the “Binding (25 °C)” value [4] was 1.36. The “Binding (45 °C)” value [5] was 1.25, the “Binding (vs wt)” value [6] was 0.6 and the “Binding / Expression ratio (45degrees)” value [7] was 0.885. The “Binding / Expression ratio (25 degrees)” value [8] was 0.679.

B4: 5D9 (ligand)
4-1BBL variant: B1 4-1BBL variant with W60F, E62S, L177W, L179M
notes: also called 4-1BBL variant 5D9 (phagemid clone, bacterial supernatant)
With B4 the “Reporter (RLU)” value [1] was 4780 RLU, the “Reporter (vs wt)” value [1] was 1.48 and the Reporter/Expression ratio [1] was 4240. For the same binder, the Binding/Expression ratio [2] was 1.75, the “Binding (OD450)” value [3] was 1.98 OD450 and the “Binding (25 °C)” value [4] was 1.43. For the same binder, the “Binding (45 °C)” value [5] was 0.205, the “Binding (vs wt)” value [6] was 1.01 and the “Binding / Expression ratio (45degrees)” value [7] was 0.537. For the same binder, the “Binding / Expression ratio (25 degrees)” value [8] was 1.53.

B5: 8E2 (ligand)
4-1BBL variant: B1 4-1BBL variant with E62P, G106F, T107E, A176S, L177W
notes: also called 4-1BBL variant 8E2 (phagemid clone, bacterial supernatant)
For B5, the “Reporter (RLU)” value [1] was 4880 RLU, the “Reporter (vs wt)” value [1] was 0.9 and the Reporter/Expression ratio [1] was 2570. For the same binder, the Binding/Expression ratio [2] was 0.21, the “Binding (OD450)” value [3] was 0.392 OD450 and the “Binding (25 °C)” value [4] was 0.231. The “Binding (45 °C)” value [5] was 0.309, the “Binding (vs wt)” value [6] was 0.12 and the “Binding / Expression ratio (45degrees)” value [7] was 0.388. The “Binding / Expression ratio (25 degrees)” value [8] was 0.188.

B6: 4C2 (ligand)
4-1BBL variant: B1 4-1BBL variant with E62P, T107R, L177W, L179F
notes: also called 4-1BBL variant 4C2 (phagemid clone, bacterial supernatant)
In the case of B6, the “Reporter (RLU)” value [1] is reported as 3420 RLU, the “Reporter (vs wt)” value [1] is reported as 0.71 and the Reporter/Expression ratio [1] is reported as 2040. For the same binder, the Binding/Expression ratio [2] was 0.67, the “Binding (OD450)” value [3] was 1.12 OD450 and the “Binding (25 °C)” value [4] was 0.657. The “Binding (45 °C)” value [5] was 0.823, the “Binding (vs wt)” value [6] was 0.38 and the “Binding / Expression ratio (45degrees)” value [7] was 0.506. The “Binding / Expression ratio (25 degrees)” value [8] was 0.431.
